Target: the molecule itself
Assay: western blot of BHK media, reducing (29 kDa) against non-reducing (49 kDa)

B1: Human Ztgfβ-9 protein (ligand)
chain: AGAPRAGRRPARPRGCADRPEELLEQLYGRLAAGVLSAFHHTLQLGPREQARNASCPAGGRPADRRFRPPTNLRSVSPWAYRISYDPARYPRYLPEAYCLCRGCLTGLFGEEDVRFRSAPVYMPTVVLRRTPACAGGRSVYTEAYVTIPVGCTCVPEPEKDADSINSSIDKQGAKLLLGPNDAPAGP
notes: Expressed in BHK cells without a tag and secreted into the medium; also called transforming growth factor beta-9
  binding result: binds

— EP1897948A1 (ZymoGenetics, Inc., dated 2008)
